In the supplement of paper PMC10567573:

B1: KLHDC10 (parent)
chain: PSLLELAWEKLLAAFPNLANLSRT

Variants of: B1
Test: protein stability index of a GFP-peptide fusion (GPS, HEK-293T) (PSI 1-6); higher = more stable
Settings: c terminus: a fixed tail appended
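Note: lentivirally expressed fusions sorted by FACS into six bins by GFP to DsRed ratio, PSI derived from sequencing read proportions per bin multiplied by bin number.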

Variant | protein stability index
PSLLELAWEKLHAAFPNLANLSRT | 2.33
PSLLELAWEKLNAAFPNLANLSRT | 2.32
PSLLELAWEKLCAAFPNLANLSRT | 1.83
PSLLELAWEKLEAAFPNLANLSRT | 2.66
PSLLELAWEKLQAAFPNLANLSRT | 2.23
PSLLELAWEKLDAAFPNLANLSRT | 3.04
PSLLELAWEKLVAAFPNLANLSRT | 2.44
PSLLELAWEKLGAAFPNLANLSRT | 2.66
PSLLELAWEKLMAAFPNLANLSRT | 1.85
PSLLELAWEKLSAAFPNLANLSRT | 1.9
PSLLELAWEKLKAAFPNLANLSRT | 3.22
PSLLELAWEKLYAAFPNLANLSRT | 1.76
PSLLELAWEKLIAAFPNLANLSRT | 2.12
PSLLELAWEKLAAAFPNLANLSRT | 2.52
PSLLELAWEKLPAAFPNLANLSRT | 2.17
PSLLELAWEKLFAAFPNLANLSRT | 2.3
PSLLELAWEKLWAAFPNLANLSRT | 1.71
PSLLELAWEKLTAAFPNLANLSRT | 2.37
PSLLELAWEKLRAAFPNLANLSRT | 1.88
PSLLELAWEKLLANFPNLANLSRT | 2.2
PSLLELAWEKLLATFPNLANLSRT | 2.2
PSLLELAWEKLLAPFPNLANLSRT | 2.07
PSLLELAWEKLLAFFPNLANLSRT | 2.82
PSLLELAWEKLLAGFPNLANLSRT | 1.81

Variant | protein stability index
PSLLELAWEKLLAEFPNLANLSRT | 2.11
PSLLELAWEKLLAVFPNLANLSRT | 2.4
PSLLELAWEKLLAMFPNLANLSRT | 2.19
PSLLELAWEKLLAYFPNLANLSRT | 3
PSLLELAWEKLLALFPNLANLSRT | 2.75
PSLLELAWEKLLARFPNLANLSRT | 1.87
PSLLELAWEKLLAQFPNLANLSRT | 2.05
PSLLELAWEKLLASFPNLANLSRT | 2.86
PSLLELAWEKLLAKFPNLANLSRT | 2.1
PSLLELAWEKLLACFPNLANLSRT | 2.58
PSLLELAWEKLLADFPNLANLSRT | 2.19
PSLLELAWEKLLAHFPNLANLSRT | 2.15
PSLLELAWEKLLAWFPNLANLSRT | 3.3
PSLLELAWEKLLAIFPNLANLSRT | 2.83
PSLLELAWEKLLMAFPNLANLSRT | 2.51
PSLLELAWEKLLEAFPNLANLSRT | 1.99
PSLLELAWEKLLDAFPNLANLSRT | 2.12
PSLLELAWEKLLVAFPNLANLSRT | 1.79
PSLLELAWEKLLFAFPNLANLSRT | 1.46
PSLLELAWEKLLQAFPNLANLSRT | 2.25
PSLLELAWEKLLTAFPNLANLSRT | 2.2
PSLLELAWEKLLCAFPNLANLSRT | 2.01
PSLLELAWEKLLLAFPNLANLSRT | 1.74
PSLLELAWEKLLKAFPNLANLSRT | 1.95

Variant | protein stability index
PSLLELAWEKLLPAFPNLANLSRT | 1.86
PSLLELAWEKLLSAFPNLANLSRT | 2.28
PSLLELAWEKLLHAFPNLANLSRT | 2.83
PSLLELAWEKLLWAFPNLANLSRT | 1.64
PSLLELAWEKLLGAFPNLANLSRT | 2.06
PSLLELAWEKLLRAFPNLANLSRT | 1.8
PSLLELAWEKLLYAFPNLANLSRT | 1.85
PSLLELAWEKLLNAFPNLANLSRT | 2.04
PSLLELAWEKLLIAFPNLANLSRT | 2.46
PSLLELAWEKHLAAFPNLANLSRT | 1.92
PSLLELAWEKQLAAFPNLANLSRT | 2.19
PSLLELAWEKPLAAFPNLANLSRT | 2.39
PSLLELAWEKALAAFPNLANLSRT | 2.36
PSLLELAWEKVLAAFPNLANLSRT | 2.5
PSLLELAWEKYLAAFPNLANLSRT | 2.19
PSLLELAWEKGLAAFPNLANLSRT | 1.69
PSLLELAWEKSLAAFPNLANLSRT | 2.2
PSLLELAWEKMLAAFPNLANLSRT | 1.6
PSLLELAWEKTLAAFPNLANLSRT | 1.92
PSLLELAWEKKLAAFPNLANLSRT | 1.62
PSLLELAWEKFLAAFPNLANLSRT | 2.29
PSLLELAWEKILAAFPNLANLSRT | 2.23
PSLLELAWEKELAAFPNLANLSRT | 2.55
PSLLELAWEKWLAAFPNLANLSRT | 2.06

Variant | protein stability index
PSLLELAWEKCLAAFPNLANLSRT | 1.88
PSLLELAWEKNLAAFPNLANLSRT | 2.26
PSLLELAWEKDLAAFPNLANLSRT | 2.14
PSLLELAWEKRLAAFPNLANLSRT | 2.07
PSLLELAGEKLLAAFPNLANLSRT | 2.78
PSLLELASEKLLAAFPNLANLSRT | 2.24
PSLLELAPEKLLAAFPNLANLSRT | 3.21
PSLLELAIEKLLAAFPNLANLSRT | 1.87
PSLLELAKEKLLAAFPNLANLSRT | 2.61
PSLLELAEEKLLAAFPNLANLSRT | 2.97
PSLLELAQEKLLAAFPNLANLSRT | 2.88
PSLLELAMEKLLAAFPNLANLSRT | 1.95
PSLLELAHEKLLAAFPNLANLSRT | 2.54
PSLLELAFEKLLAAFPNLANLSRT | 2.56
PSLLELAVEKLLAAFPNLANLSRT | 2.19
PSLLELALEKLLAAFPNLANLSRT | 1.58
PSLLELAREKLLAAFPNLANLSRT | 2.52
PSLLELATEKLLAAFPNLANLSRT | 1.94
PSLLELAAEKLLAAFPNLANLSRT | 1.77
PSLLELADEKLLAAFPNLANLSRT | 2.37
PSLLELACEKLLAAFPNLANLSRT | 1.85
PSLLELANEKLLAAFPNLANLSRT | 2.37
PSLLELAYEKLLAAFPNLANLSRT | 2.04
PSLLEYAWEKLLAAFPNLANLSRT | 1.95

Variant | protein stability index
PSLLEGAWEKLLAAFPNLANLSRT | 1.64
PSLLEDAWEKLLAAFPNLANLSRT | 2.2
PSLLEFAWEKLLAAFPNLANLSRT | 2.01
PSLLEWAWEKLLAAFPNLANLSRT | 3.58
PSLLERAWEKLLAAFPNLANLSRT | 1.72
PSLLEEAWEKLLAAFPNLANLSRT | 1.81
PSLLEMAWEKLLAAFPNLANLSRT | 2.47
PSLLEVAWEKLLAAFPNLANLSRT | 2.33
PSLLETAWEKLLAAFPNLANLSRT | 2.23
PSLLENAWEKLLAAFPNLANLSRT | 2.09
PSLLEIAWEKLLAAFPNLANLSRT | 2.06
PSLLEKAWEKLLAAFPNLANLSRT | 3.43
PSLLEAAWEKLLAAFPNLANLSRT | 1.94
PSLLECAWEKLLAAFPNLANLSRT | 1.92
PSLLEPAWEKLLAAFPNLANLSRT | 1.86
PSLLEHAWEKLLAAFPNLANLSRT | 1.59
PSLLEQAWEKLLAAFPNLANLSRT | 2
PSLLESAWEKLLAAFPNLANLSRT | 2.28
PSLLELAWQKLLAAFPNLANLSRT | 2.34
PSLLELAWMKLLAAFPNLANLSRT | 1.61
PSLLELAWNKLLAAFPNLANLSRT | 2.62
PSLLELAWLKLLAAFPNLANLSRT | 2.29
PSLLELAWWKLLAAFPNLANLSRT | 1.14
PSLLELAWIKLLAAFPNLANLSRT | 2.07

Variant | protein stability index
PSLLELAWGKLLAAFPNLANLSRT | 2
PSLLELAWHKLLAAFPNLANLSRT | 1.93
PSLLELAWKKLLAAFPNLANLSRT | 1.97
PSLLELAWAKLLAAFPNLANLSRT | 1.84
PSLLELAWSKLLAAFPNLANLSRT | 2.35
PSLLELAWTKLLAAFPNLANLSRT | 2.39
PSLLELAWDKLLAAFPNLANLSRT | 2.22
PSLLELAWCKLLAAFPNLANLSRT | 1.5
PSLLELAWRKLLAAFPNLANLSRT | 2.37
PSLLELAWVKLLAAFPNLANLSRT | 1.72
PSLLELAWFKLLAAFPNLANLSRT | 1.44
PSLLELAWPKLLAAFPNLANLSRT | 2
PSLLELAWYKLLAAFPNLANLSRT | 1.59
PSLLELAWEKLLAAGPNLANLSRT | 2.08
PSLLELAWEKLLAAAPNLANLSRT | 2.23
PSLLELAWEKLLAAHPNLANLSRT | 2.06
PSLLELAWEKLLAACPNLANLSRT | 1.78
PSLLELAWEKLLAAEPNLANLSRT | 2.36
PSLLELAWEKLLAADPNLANLSRT | 2.3
PSLLELIWEKLLAAFPNLANLSRT | 1.97
PSLLELGWEKLLAAFPNLANLSRT | 1.96
PSLLELYWEKLLAAFPNLANLSRT | 2.08
PSLLELRWEKLLAAFPNLANLSRT | 2.35
PSLLELDWEKLLAAFPNLANLSRT | 2.14

Variant | protein stability index
PSLLELNWEKLLAAFPNLANLSRT | 2.28
PSLLELEWEKLLAAFPNLANLSRT | 2.74
PSLLELCWEKLLAAFPNLANLSRT | 2.23
PSLLELKWEKLLAAFPNLANLSRT | 2.73
PSLLELVWEKLLAAFPNLANLSRT | 2.22
PSLLELTWEKLLAAFPNLANLSRT | 1.28
PSLLELLWEKLLAAFPNLANLSRT | 2.29
PSLLELHWEKLLAAFPNLANLSRT | 1.33
PSLLELQWEKLLAAFPNLANLSRT | 2.29
PSLLELMWEKLLAAFPNLANLSRT | 2.33
PSLLELSWEKLLAAFPNLANLSRT | 2.58
PSLLELWWEKLLAAFPNLANLSRT | 1.84
PSLLELPWEKLLAAFPNLANLSRT | 1.77
PSLLELFWEKLLAAFPNLANLSRT | 1.86
PSLLSLAWEKLLAAFPNLANLSRT | 3.15
PSLLLLAWEKLLAAFPNLANLSRT | 2.19
PSLLRLAWEKLLAAFPNLANLSRT | 2.29
PSLLPLAWEKLLAAFPNLANLSRT | 1.34
PSLLTLAWEKLLAAFPNLANLSRT | 2.31
PSLLVLAWEKLLAAFPNLANLSRT | 1.71
PSLLWLAWEKLLAAFPNLANLSRT | 1.93
PSLLNLAWEKLLAAFPNLANLSRT | 2.72
PSLLYLAWEKLLAAFPNLANLSRT | 2.47
PSLLMLAWEKLLAAFPNLANLSRT | 2.04

Variant | protein stability index
PSLLQLAWEKLLAAFPNLANLSRT | 2.49
PSLLELAWEPLLAAFPNLANLSRT | 1.64
PSLLELAWEDLLAAFPNLANLSRT | 1.84
PSLLELAWETLLAAFPNLANLSRT | 1.69
PSLLELAWEGLLAAFPNLANLSRT | 1.93
PSLLELAWELLLAAFPNLANLSRT | 2.42
PSLLELAWEMLLAAFPNLANLSRT | 2
PSLLELAWESLLAAFPNLANLSRT | 1.72
PSLLELAWECLLAAFPNLANLSRT | 1.63
PSLLELAWEYLLAAFPNLANLSRT | 1.75
PSLLELAWEALLAAFPNLANLSRT | 1.84
PSLLELAWEFLLAAFPNLANLSRT | 2.25
PSLLELAWEVLLAAFPNLANLSRT | 2.07
PSLLELAWENLLAAFPNLANLSRT | 1.48
PSLLELAWEELLAAFPNLANLSRT | 1.57
PSLLELAWEHLLAAFPNLANLSRT | 2.09
PSLLELAWEILLAAFPNLANLSRT | 1.7
PSLLELAWEQLLAAFPNLANLSRT | 1.95
PSLLELAWERLLAAFPNLANLSRT | 1.9
PSLLELAWEWLLAAFPNLANLSRT | 2.53
